Assay results reported in patent US20140072613A1, “Compositions and Methods for Treating Cutaneous Scarring” (priority 2012, published 2014).

Columns and labels:
Assay in all cases: biochemical
Pim-1 (h) = Pim-1 (h) (Homo sapiens, UniProt P11309); conditions: Pim-1(h); 100 μM
Description: Specifically, in these assays, a positively charged substrate is phosphorylated with a radiolabeled phosphate group from an ATP if the kinase is not inhibited by an inhibitor peptide. The positively charged substrate then is attracted to a negatively charged filter membrane, quantified with a scintillation counter, and compared to a 100% activity control.

266 human kinases [1] = target: 266 human kinases (Homo sapiens, UniProt O43353); format: biochemical; conditions: RIPK2(h); 100 μM
266 human kinases (Homo sapiens, UniProt O43353), sequence (O43353 whole entry): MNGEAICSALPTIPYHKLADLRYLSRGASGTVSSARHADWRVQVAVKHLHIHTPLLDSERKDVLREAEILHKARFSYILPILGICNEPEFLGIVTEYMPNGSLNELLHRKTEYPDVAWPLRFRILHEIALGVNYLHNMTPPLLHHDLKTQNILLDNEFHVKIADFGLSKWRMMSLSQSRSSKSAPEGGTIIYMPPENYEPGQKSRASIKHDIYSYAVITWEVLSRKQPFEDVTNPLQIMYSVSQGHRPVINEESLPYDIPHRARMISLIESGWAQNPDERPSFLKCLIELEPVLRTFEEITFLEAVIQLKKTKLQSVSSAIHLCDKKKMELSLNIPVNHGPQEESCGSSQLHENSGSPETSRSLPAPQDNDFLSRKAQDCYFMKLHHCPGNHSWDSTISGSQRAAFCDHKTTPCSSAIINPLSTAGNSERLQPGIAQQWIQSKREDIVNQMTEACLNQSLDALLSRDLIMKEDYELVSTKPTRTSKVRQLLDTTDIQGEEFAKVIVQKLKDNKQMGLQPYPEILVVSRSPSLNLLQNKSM
Summary of the method: (§1)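 Read-out by scintillation counting of radiolabelled, positively charged substrate bound to negatively charged filter; activity normalised to 100% control. Phosphate transferred from radiolabelled ATP.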

266 human kinases [2] = target: 266 human kinases (Homo sapiens, UniProt O75676); format: biochemical; conditions: MSK2(h); 100 μM
266 human kinases (Homo sapiens, UniProt O75676), sequence (O75676 whole entry): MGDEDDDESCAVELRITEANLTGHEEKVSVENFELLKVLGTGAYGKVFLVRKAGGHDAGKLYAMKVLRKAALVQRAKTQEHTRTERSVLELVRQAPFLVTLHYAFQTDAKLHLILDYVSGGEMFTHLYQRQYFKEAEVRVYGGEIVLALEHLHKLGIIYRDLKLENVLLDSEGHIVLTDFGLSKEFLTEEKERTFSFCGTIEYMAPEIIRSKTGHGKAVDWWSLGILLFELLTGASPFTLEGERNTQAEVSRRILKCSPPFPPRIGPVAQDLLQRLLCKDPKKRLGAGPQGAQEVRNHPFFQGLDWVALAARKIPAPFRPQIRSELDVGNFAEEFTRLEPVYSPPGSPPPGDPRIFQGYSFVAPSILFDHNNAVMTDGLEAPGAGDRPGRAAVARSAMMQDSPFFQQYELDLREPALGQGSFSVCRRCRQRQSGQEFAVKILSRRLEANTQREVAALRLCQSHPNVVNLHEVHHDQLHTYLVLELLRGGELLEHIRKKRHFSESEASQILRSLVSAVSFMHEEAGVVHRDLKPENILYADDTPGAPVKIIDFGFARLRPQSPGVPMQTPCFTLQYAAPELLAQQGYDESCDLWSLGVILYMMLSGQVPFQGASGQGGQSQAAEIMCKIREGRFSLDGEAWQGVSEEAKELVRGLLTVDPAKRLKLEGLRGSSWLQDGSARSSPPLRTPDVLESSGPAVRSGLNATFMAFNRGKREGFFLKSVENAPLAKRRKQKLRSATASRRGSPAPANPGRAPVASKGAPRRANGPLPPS
Summary of the method: as §1

266 human kinases [3] = target: 266 human kinases (Homo sapiens, UniProt P06239); format: biochemical; conditions: 100 μM
266 human kinases (Homo sapiens, UniProt P06239), sequence (P06239 whole entry): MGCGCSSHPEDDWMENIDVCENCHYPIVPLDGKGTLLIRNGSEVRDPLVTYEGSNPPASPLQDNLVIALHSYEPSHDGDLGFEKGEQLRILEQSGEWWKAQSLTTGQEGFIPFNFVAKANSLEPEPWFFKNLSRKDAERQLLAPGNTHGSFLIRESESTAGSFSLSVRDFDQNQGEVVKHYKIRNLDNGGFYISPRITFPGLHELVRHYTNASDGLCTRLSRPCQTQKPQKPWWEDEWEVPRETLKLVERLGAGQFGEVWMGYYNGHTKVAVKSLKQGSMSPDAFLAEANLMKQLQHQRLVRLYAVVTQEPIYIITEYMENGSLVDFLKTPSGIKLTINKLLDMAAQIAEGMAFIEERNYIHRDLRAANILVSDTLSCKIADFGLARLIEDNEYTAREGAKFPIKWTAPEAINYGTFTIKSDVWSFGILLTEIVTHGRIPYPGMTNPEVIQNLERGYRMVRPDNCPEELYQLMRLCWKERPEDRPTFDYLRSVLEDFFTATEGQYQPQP
Summary of the method: as §1

266 human kinases [4] = target: 266 human kinases (Homo sapiens, UniProt P08922); format: biochemical; conditions: Ros(h); 100 μM
Summary of the method: as §1

266 human kinases [5] = target: 266 human kinases (Homo sapiens, UniProt P10721); format: biochemical; conditions: cKit(h); 100 μM
Summary of the method: as §1

266 human kinases [6] = target: 266 human kinases (Homo sapiens, UniProt P16234); format: biochemical; conditions: PDGFRα(h); 100 μM
266 human kinases (Homo sapiens, UniProt P16234), sequence (P16234 24-1089): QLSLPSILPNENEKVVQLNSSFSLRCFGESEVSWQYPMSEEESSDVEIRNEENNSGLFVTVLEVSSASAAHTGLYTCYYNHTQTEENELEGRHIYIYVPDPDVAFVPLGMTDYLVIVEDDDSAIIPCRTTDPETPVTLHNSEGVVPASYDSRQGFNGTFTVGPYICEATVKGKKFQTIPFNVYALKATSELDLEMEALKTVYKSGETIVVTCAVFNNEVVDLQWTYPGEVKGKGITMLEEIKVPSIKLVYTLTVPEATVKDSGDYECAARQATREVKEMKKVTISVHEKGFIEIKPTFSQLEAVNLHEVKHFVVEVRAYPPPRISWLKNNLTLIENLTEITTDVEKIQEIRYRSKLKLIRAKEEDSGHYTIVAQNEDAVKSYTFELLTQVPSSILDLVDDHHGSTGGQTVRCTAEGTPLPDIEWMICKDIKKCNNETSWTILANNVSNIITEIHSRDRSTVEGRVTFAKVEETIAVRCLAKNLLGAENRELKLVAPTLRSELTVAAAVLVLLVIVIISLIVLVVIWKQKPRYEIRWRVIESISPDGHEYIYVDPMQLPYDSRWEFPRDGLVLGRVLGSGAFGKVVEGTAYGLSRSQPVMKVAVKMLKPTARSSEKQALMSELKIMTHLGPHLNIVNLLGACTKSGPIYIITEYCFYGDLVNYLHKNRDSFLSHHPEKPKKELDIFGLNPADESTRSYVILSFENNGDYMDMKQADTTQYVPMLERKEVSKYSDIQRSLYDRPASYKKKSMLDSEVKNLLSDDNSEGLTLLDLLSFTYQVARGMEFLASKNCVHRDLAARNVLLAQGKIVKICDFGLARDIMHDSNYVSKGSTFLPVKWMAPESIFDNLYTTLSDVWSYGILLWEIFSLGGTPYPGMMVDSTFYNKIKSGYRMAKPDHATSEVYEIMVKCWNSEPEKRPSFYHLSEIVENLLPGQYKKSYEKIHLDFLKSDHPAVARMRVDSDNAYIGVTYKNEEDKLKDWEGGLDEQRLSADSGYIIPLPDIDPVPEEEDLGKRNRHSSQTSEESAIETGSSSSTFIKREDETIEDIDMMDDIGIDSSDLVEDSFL
Summary of the method: as §1

266 human kinases [7] = target: T1, 266 human kinases (Homo sapiens, UniProt P29322); format: biochemical; conditions: EphA8(h); 100 μM
T1 sequence (P29322 28-1005): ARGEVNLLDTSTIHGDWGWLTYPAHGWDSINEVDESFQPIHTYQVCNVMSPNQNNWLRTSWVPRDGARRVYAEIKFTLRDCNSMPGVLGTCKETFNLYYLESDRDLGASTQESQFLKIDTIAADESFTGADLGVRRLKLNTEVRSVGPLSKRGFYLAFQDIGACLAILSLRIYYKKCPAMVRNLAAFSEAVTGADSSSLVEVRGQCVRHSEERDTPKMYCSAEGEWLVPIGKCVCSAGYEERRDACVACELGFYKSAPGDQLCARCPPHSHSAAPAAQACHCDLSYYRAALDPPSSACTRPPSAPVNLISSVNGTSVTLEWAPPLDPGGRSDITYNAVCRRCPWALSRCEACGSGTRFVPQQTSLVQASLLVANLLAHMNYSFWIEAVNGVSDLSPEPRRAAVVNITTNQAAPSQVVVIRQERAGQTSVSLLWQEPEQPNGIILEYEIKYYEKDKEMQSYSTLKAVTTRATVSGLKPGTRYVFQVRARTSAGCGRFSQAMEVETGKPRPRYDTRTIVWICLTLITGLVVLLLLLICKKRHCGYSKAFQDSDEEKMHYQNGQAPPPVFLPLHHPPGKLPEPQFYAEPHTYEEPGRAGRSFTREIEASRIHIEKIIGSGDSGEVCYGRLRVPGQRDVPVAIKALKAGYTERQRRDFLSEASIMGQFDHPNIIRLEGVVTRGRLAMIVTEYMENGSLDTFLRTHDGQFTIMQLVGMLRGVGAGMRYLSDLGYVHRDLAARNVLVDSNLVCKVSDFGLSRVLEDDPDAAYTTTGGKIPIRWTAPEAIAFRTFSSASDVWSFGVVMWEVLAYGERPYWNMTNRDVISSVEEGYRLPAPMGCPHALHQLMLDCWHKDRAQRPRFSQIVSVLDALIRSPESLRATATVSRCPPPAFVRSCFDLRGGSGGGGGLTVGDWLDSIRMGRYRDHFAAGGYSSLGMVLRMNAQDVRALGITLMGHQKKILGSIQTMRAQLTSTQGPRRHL
Summary of the method: as §1

266 human kinases [8] = target: 266 human kinases (Homo sapiens, UniProt P31749); format: biochemical; conditions: PKBα(h); 100 μM
266 human kinases (Homo sapiens, UniProt P31749), sequence (P31749 whole entry): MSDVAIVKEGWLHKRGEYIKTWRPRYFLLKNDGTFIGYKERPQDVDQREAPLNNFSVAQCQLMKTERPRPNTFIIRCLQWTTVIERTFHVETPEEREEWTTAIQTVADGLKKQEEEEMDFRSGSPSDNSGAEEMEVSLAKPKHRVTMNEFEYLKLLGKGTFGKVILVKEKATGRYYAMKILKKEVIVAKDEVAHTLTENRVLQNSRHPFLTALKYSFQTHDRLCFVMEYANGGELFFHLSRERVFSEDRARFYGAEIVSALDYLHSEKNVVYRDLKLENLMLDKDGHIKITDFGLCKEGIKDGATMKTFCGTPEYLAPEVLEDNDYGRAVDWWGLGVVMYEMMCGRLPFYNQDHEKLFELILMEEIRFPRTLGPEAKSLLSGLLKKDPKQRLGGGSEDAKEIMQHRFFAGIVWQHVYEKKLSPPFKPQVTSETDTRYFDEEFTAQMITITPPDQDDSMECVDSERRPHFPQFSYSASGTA
Summary of the method: as §1

266 human kinases [9] = target: 266 human kinases (Homo sapiens, UniProt P53779); format: biochemical; conditions: JNK3(h); 100 μM
266 human kinases (Homo sapiens, UniProt P53779), sequence (P53779 whole entry): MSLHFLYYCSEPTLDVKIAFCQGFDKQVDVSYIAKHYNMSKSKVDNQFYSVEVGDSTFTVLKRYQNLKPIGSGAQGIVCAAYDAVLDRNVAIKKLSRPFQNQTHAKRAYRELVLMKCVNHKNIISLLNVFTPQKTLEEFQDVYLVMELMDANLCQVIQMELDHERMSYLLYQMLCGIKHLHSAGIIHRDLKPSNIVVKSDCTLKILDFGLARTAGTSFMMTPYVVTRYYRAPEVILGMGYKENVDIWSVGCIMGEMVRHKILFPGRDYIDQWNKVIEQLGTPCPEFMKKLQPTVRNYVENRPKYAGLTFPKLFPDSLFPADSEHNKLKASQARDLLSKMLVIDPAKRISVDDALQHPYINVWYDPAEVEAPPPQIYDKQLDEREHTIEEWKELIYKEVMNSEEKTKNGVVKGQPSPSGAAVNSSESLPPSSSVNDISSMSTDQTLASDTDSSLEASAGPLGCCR
Summary of the method: as §1

266 human kinases [10] = target: 266 human kinases (Homo sapiens, UniProt Q14289); format: biochemical; conditions: Pyk2 (h); 100 μM
Summary of the method: as §1

266 human kinases [11] = target: T2, 266 human kinases (Homo sapiens, UniProt Q15831); format: biochemical; conditions: LKB1(h); 100 μM
T2 sequence (Q15831 1-433): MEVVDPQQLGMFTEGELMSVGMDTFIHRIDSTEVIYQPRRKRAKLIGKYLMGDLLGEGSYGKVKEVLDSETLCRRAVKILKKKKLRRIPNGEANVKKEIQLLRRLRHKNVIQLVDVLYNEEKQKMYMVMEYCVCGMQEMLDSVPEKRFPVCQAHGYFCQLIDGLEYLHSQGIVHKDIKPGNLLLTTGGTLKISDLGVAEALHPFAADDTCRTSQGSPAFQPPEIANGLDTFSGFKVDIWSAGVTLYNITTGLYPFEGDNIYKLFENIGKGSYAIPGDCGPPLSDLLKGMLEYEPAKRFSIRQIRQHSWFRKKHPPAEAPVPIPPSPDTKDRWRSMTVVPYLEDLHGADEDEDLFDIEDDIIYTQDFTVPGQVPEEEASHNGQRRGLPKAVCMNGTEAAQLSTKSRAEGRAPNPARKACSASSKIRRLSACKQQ
Summary of the method: as §1

266 human kinases [12] = target: 266 human kinases (Homo sapiens, UniProt Q8WTQ7); format: biochemical; conditions: GRK7(h); 100 μM
266 human kinases (Homo sapiens, UniProt Q8WTQ7), sequence (Q8WTQ7 whole entry): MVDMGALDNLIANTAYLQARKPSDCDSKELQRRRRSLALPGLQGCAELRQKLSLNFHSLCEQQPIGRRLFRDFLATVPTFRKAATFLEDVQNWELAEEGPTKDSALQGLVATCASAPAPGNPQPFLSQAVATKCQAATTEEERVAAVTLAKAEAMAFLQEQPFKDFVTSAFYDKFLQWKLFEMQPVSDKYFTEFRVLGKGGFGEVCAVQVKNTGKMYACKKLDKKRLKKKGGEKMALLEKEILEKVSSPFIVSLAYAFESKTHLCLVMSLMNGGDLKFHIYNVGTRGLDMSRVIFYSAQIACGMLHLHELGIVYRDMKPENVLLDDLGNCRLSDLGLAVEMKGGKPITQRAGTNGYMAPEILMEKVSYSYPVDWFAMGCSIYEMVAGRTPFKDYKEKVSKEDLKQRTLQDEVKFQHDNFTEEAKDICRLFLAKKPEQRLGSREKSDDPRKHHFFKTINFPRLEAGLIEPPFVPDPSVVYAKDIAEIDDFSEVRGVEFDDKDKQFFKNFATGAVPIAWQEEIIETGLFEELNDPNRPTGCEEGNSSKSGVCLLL
Summary of the method: as §1

266 human kinases [13] = target: T3, 266 human kinases (Homo sapiens, UniProt Q96PF2); format: biochemical; conditions: TSSK2(h); 100 μM
T3 sequence (Q96PF2 1-358): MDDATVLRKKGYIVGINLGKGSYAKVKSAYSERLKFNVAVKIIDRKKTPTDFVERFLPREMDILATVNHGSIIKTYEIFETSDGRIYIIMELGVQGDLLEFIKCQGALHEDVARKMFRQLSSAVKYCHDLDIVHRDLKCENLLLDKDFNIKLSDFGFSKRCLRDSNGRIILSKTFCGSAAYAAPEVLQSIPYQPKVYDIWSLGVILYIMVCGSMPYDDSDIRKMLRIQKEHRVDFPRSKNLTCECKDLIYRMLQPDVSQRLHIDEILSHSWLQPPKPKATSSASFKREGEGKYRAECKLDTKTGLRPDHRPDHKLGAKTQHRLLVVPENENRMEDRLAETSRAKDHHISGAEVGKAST
Summary of the method: as §1

266 human kinases [14] = format: biochemical; conditions: for % activity: 100 μM; for off-target kinase inhibition: at 100 μM
Summary of the method: as §1

Pim-1 (h), sequence (P11309 whole entry): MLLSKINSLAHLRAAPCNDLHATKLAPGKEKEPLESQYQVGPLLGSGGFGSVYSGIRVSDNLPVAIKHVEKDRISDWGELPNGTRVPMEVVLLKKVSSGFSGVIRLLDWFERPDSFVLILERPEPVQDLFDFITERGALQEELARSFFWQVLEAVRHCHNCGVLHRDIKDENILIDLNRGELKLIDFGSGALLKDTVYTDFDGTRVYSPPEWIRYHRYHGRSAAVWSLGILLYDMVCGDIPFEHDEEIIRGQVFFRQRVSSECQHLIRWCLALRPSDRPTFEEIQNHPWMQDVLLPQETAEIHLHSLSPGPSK

Sequence | % activity (Pim-1 (h)) [%] | % activity (266 human kinases [1]) [%] | % activity (266 human kinases [2]) [%] | % activity (266 human kinases [3]; Lck(h) activated) [%] | % activity (266 human kinases [3]; Lck(h)) [%] | % activity (266 human kinases [4]) [%] | % activity (266 human kinases [5]) [%] | % activity (266 human kinases [6]) [%] | % activity (266 human kinases [7]) [%] | % activity (266 human kinases [8]) [%] | % activity (266 human kinases [9]) [%] | % activity (266 human kinases [10]) [%] | % activity (266 human kinases [11]) [%] | % activity (266 human kinases [12]) [%] | % activity (266 human kinases [13]) [%] | % activity (266 human kinases [14]; PKCβII(h)) [%] | % activity (266 human kinases [14]; PKG1β(h)) [%] | off-target kinase inhibition (266 human kinases [14]) | % activity (266 human kinases [14]; MAPK1(h)) [%]
HRRIKAWLKKIKALARQLGVAA (mammal) [MMI-0500] | 0 | 30 | 14 | 76 | 359 | 150 | 45 | 40 | 337 | 30 | 171 | 46 | 51 | 93 | 92 | 3 | 24 | very limited off-target kinase inhibition | 
YARAAARQARAKALNRQLGVA (mammal) [MMI-0200] | 18 | 98 | 88 | 90 |  | 86 | 110 | 108 | 133 | 110 | 90 | 127 | 99 | 124 | 91 | 100 | 57 | very limited off-target kinase inhibition | 97
